Numbered stars: 1 amine (or outer) side, 2 acyl side, 3 side chain; on linkers, the order of the positions; unused ones are H or OH. Bridge positions count the residues as written; N and C are the ends. Square brackets hold non-standard residues; d marks the D form. Primed or numbered codes have the meaning given here. 4Pal2F = (S)-2-Amino-3-(3-fluoropyridin-4-yl)propanoic acid, O=C([C@H](Cc1ccncc1F)N[*:1])[*:2]; bhcLeu = (1R,3S)-3-aminocyclopentane-1-carboxylic acid, O=C([C@@H]1CC[C@H](N[*:1])C1)[*:2]; AhpF3 = (S)-2-Amino-7,7,7-trifluoroheptanoic acid, O=C([C@H](CCCCC(F)(F)F)N[*:1])[*:2]; Trp(1-CH2CO) = O=C([C@H](Cc1cn(CC(=O)[*:3])c2ccccc12)N[*:1])[*:2]; Ala(2-carboxypyrimidin-5-yl) = N[C@@H](Cc1cnc(C(=O)O)nc1)C(=O)O; Trp(βS-Me,7-OMe) = COc1cccc2c([C@H](C)[C@H](N)C(=O)O)c[nH]c12; Phe(3R-OH) = O=C([C@@H](N[*:1])[C@H](O[*:3])c1ccccc1)[*:2]; Ala(1-bicyclo(1.1.1)pentyl) = N[C@@H](CC12CC(C1)C2)C(=O)O; NEtdA = N-ethyl-D-alanine, CCN([C@H](C)C(=O)[*:2])[*:1]; Phe(4-SO3H) = N[C@@H](Cc1ccc(S(=O)(=O)O)cc1)C(=O)O; Trp(7-Cl) = N[C@@H](Cc1c[nH]c2c(Cl)cccc12)C(=O)O; Phe(4-CONH2) = NC(=O)c1ccc(C[C@H](N)C(=O)O)cc1; Phe(4-COOH) = N[C@@H](Cc1ccc(C(=O)O)cc1)C(=O)O; Trp(7-aza) = N[C@@H](Cc1c[nH]c2ncccc12)C(=O)O; Pip(5R-OH) = O=C(O)[C@@H]1CC[C@@H](O)CN1; Val(3-OH) = CC(C)(O)[C@H](N)C(=O)O; Pip(4-aza) = O=C(O)[C@@H]1CNCCN1; 4Pal = N[C@@H](Cc1ccncc1)C(=O)O; NMeE = CN[C@@H](CCC(=O)O)C(=O)O; dHyp = O=C(O)[C@H]1C[C@H](O)CN1; Morpip6diMe = not defined here; dbhcLeu = not defined here; αMeS = C[C@](N)(CO)C(=O)O; Nle = CCCC[C@H](N)C(=O)O; Pip′ = not defined here; Sar = CNCC(=O)O

This note sets out measurements from patent publication US20240287138A1 (Merck Sharp & Dohme, published 2024).

First the molecules themselves.
T1: TNFR1 on THP-1 Lucia NF-κB cells (UniProt P19438 30-455, limits assumed)
T1 sequence (looked up): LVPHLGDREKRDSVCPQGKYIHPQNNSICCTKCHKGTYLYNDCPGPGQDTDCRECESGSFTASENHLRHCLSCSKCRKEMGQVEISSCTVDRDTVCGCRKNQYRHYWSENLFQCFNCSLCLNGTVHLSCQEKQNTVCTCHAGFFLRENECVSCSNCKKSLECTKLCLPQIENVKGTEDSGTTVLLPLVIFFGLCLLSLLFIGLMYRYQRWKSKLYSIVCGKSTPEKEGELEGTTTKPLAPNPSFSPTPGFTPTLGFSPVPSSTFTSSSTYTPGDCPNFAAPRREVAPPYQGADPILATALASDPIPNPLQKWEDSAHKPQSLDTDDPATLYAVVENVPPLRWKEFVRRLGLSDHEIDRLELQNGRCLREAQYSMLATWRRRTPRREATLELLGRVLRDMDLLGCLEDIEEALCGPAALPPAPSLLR

B1: SEQ ID NO. 198 (peptide)
peptide: cyclo([bhcLeu][Nle][4Pal][Pip(4-aza)]W[NMeE]N[4Pal2F][Trp(7-Cl)][αMeS][Phe(4-COOH)]Y[Sar][Trp(βS-Me,7-OMe)])
SMILES: CCCC[C@@H]1NC(=O)[C@@H]2CC[C@@H](C2)NC(=O)[C@H]([C@@H](C)c2c[nH]c3c(OC)cccc23)NC(=O)CN(C)C(=O)[C@H](Cc2ccc(O)cc2)NC(=O)[C@H](Cc2ccc(C(=O)O)cc2)NC(=O)[C@](C)(CO)NC(=O)[C@H](Cc2c[nH]c3c(Cl)cccc23)NC(=O)[C@H](Cc2ccncc2F)NC(=O)[C@H](CC(N)=O)NC(=O)[C@H](CCC(=O)O)N(C)C(=O)[C@H](Cc2c[nH]c3ccccc23)NC(=O)[C@@H]2CNCCN2C(=O)[C@H](Cc2ccncc2)NC1=O
B2: SEQ ID NO. 217 (peptide)
peptide: {CH2CO}-[Nle]H[Val(3-OH)][Trp(7-aza)][NMeE]N[4Pal][Trp(7-Cl)][αMeS][Phe(4-COOH)]Y[Sar][Trp(βS-Me,7-OMe)]C-NH2
modifications: thioether N-14
SMILES: CCCC[C@@H]1NC(=O)CSC[C@@H](C(N)=O)NC(=O)[C@H]([C@@H](C)c2c[nH]c3c(OC)cccc23)NC(=O)CN(C)C(=O)[C@H](Cc2ccc(O)cc2)NC(=O)[C@H](Cc2ccc(C(=O)O)cc2)NC(=O)[C@](C)(CO)NC(=O)[C@H](Cc2c[nH]c3c(Cl)cccc23)NC(=O)[C@H](Cc2ccncc2)NC(=O)[C@H](CC(N)=O)NC(=O)[C@H](CCC(=O)O)N(C)C(=O)[C@H](Cc2c[nH]c3ncccc23)NC(=O)[C@H](C(C)(C)O)NC(=O)[C@H](Cc2c[nH]cn2)NC1=O
B3: SEQ ID NO. 214 (peptide)
peptide: cyclo([dbhcLeu][Nle][4Pal][Morpip6diMe]W[NMeE]N[4Pal][Trp(7-Cl)][αMeS][Phe(4-CONH2)]Y[Sar][Trp(βS-Me,7-OMe)])
modifications: reading uncertain; also: printed as cyclo(dbhcLeu-Nle-4Pal-Morpip6diMe-W-NMeE-N-4Pal-Trp7Cl-aMeS-Phe4CONH2-Y-Sar-SbMeW7OMe)
B4: SEQ ID NO. 191 (peptide)
peptide: cyclo([bhcLeu][Nle][4Pal][Pip(5R-OH)]W[dHyp]N[Phe(4-COOH)][Trp(7-Cl)][αMeS][Phe(4-CONH2)][Ala(2-carboxypyrimidin-5-yl)][Sar][Trp(βS-Me,7-OMe)])
SMILES: CCCC[C@@H]1NC(=O)[C@@H]2CC[C@@H](C2)NC(=O)[C@H]([C@@H](C)c2c[nH]c3c(OC)cccc23)NC(=O)CN(C)C(=O)[C@H](Cc2cnc(C(=O)O)nc2)NC(=O)[C@H](Cc2ccc(C(N)=O)cc2)NC(=O)[C@](C)(CO)NC(=O)[C@H](Cc2c[nH]c3c(Cl)cccc23)NC(=O)[C@H](Cc2ccc(C(=O)O)cc2)NC(=O)[C@H](CC(N)=O)NC(=O)[C@H]2C[C@H](O)CN2C(=O)[C@H](Cc2c[nH]c3ccccc23)NC(=O)[C@@H]2CC[C@@H](O)CN2C(=O)[C@H](Cc2ccncc2)NC1=O
B5: SEQ ID NO. 186 (peptide)
peptide: {CH2CO}-[Nle][4Pal][Pip(5R-OH)]W[NEtdA]N[4Pal][Trp(7-Cl)][αMeS][Phe(4-CONH2)]Y[Sar][Trp(βS-Me,7-OMe)]C-NH2
modifications: thioether N-14
SMILES: CCCC[C@@H]1NC(=O)CSC[C@@H](C(N)=O)NC(=O)[C@H]([C@@H](C)c2c[nH]c3c(OC)cccc23)NC(=O)CN(C)C(=O)[C@H](Cc2ccc(O)cc2)NC(=O)[C@H](Cc2ccc(C(N)=O)cc2)NC(=O)[C@](C)(CO)NC(=O)[C@H](Cc2c[nH]c3c(Cl)cccc23)NC(=O)[C@H](Cc2ccncc2)NC(=O)[C@H](CC(N)=O)NC(=O)[C@@H](C)N(CC)C(=O)[C@H](Cc2c[nH]c3ccccc23)NC(=O)[C@@H]2CC[C@@H](O)CN2C(=O)[C@H](Cc2ccncc2)NC1=O
B6: SEQ ID NO. 190 (peptide)
peptide: cyclo([bhcLeu][Ala(1-bicyclo(1.1.1)pentyl)][4Pal][Pip(4-aza)]W[NMeE]N[4Pal][Trp(7-Cl)][αMeS][Phe(4-COOH)]Y[Sar][Trp(βS-Me,7-OMe)])
SMILES: COc1cccc2c([C@H](C)[C@@H]3NC(=O)CN(C)C(=O)[C@H](Cc4ccc(O)cc4)NC(=O)[C@H](Cc4ccc(C(=O)O)cc4)NC(=O)[C@](C)(CO)NC(=O)[C@H](Cc4c[nH]c5c(Cl)cccc45)NC(=O)[C@H](Cc4ccncc4)NC(=O)[C@H](CC(N)=O)NC(=O)[C@H](CCC(=O)O)N(C)C(=O)[C@H](Cc4c[nH]c5ccccc45)NC(=O)[C@@H]4CNCCN4C(=O)[C@H](Cc4ccncc4)NC(=O)[C@H](CC45CC(C4)C5)NC(=O)[C@@H]4CC[C@@H](C4)NC3=O)c[nH]c12
B7: SEQ ID NO. 197 (peptide)
peptide: cyclo([bhcLeu][Nle][4Pal][Pip(4-aza)][Trp(1-CH2CO)][NMeE]N[4Pal][Trp(7-Cl)][αMeS][Phe(4-COOH)]Y[Sar][Trp(βS-Me,7-OMe)])
SMILES: CCCC[C@@H]1NC(=O)[C@@H]2CC[C@@H](C2)NC(=O)[C@H]([C@@H](C)c2c[nH]c3c(OC)cccc23)NC(=O)CN(C)C(=O)[C@H](Cc2ccc(O)cc2)NC(=O)[C@H](Cc2ccc(C(=O)O)cc2)NC(=O)[C@](C)(CO)NC(=O)[C@H](Cc2c[nH]c3c(Cl)cccc23)NC(=O)[C@H](Cc2ccncc2)NC(=O)[C@H](CC(N)=O)NC(=O)[C@H](CCC(=O)O)N(C)C(=O)[C@H](Cc2cn(CC(=O)O)c3ccccc23)NC(=O)[C@@H]2CNCCN2C(=O)[C@H](Cc2ccncc2)NC1=O
B8: SEQ ID NO. 213 (peptide)
peptide: cyclo([bhcLeu][AhpF3][4Pal][Pip(4-aza)]W[NMeE]N[4Pal][Trp(7-Cl)][αMeS][Phe(4-COOH)]Y[Sar][Trp(βS-Me,7-OMe)])
SMILES: COc1cccc2c([C@H](C)[C@@H]3NC(=O)CN(C)C(=O)[C@H](Cc4ccc(O)cc4)NC(=O)[C@H](Cc4ccc(C(=O)O)cc4)NC(=O)[C@](C)(CO)NC(=O)[C@H](Cc4c[nH]c5c(Cl)cccc45)NC(=O)[C@H](Cc4ccncc4)NC(=O)[C@H](CC(N)=O)NC(=O)[C@H](CCC(=O)O)N(C)C(=O)[C@H](Cc4c[nH]c5ccccc45)NC(=O)[C@@H]4CNCCN4C(=O)[C@H](Cc4ccncc4)NC(=O)[C@H](CCCCC(F)(F)F)NC(=O)[C@@H]4CC[C@@H](C4)NC3=O)c[nH]c12
B9: SEQ ID NO. 211 (peptide)
peptide: {CH2CO}-[Nle][4Pal][Phe(3R-OH)][Trp(7-aza)][NMeE]N[4Pal][Trp(7-Cl)][αMeS][Phe(4-COOH)]Y[Sar][Trp(βS-Me,7-OMe)]C-NH2
modifications: thioether N-14
SMILES: CCCC[C@@H]1NC(=O)CSC[C@@H](C(N)=O)NC(=O)[C@H]([C@@H](C)c2c[nH]c3c(OC)cccc23)NC(=O)CN(C)C(=O)[C@H](Cc2ccc(O)cc2)NC(=O)[C@H](Cc2ccc(C(=O)O)cc2)NC(=O)[C@](C)(CO)NC(=O)[C@H](Cc2c[nH]c3c(Cl)cccc23)NC(=O)[C@H](Cc2ccncc2)NC(=O)[C@H](CC(N)=O)NC(=O)[C@H](CCC(=O)O)N(C)C(=O)[C@H](Cc2c[nH]c3ncccc23)NC(=O)[C@H]([C@H](O)c2ccccc2)NC(=O)[C@H](Cc2ccncc2)NC1=O
B10: SEQ ID NO. 201 (peptide)
peptide: cyclo([bhcLeu][Nle][4Pal2F][Pip(4-aza)]W[NMeE]N[4Pal][Trp(7-Cl)][αMeS][Phe(4-COOH)]Y[Sar][Trp(βS-Me,7-OMe)])
SMILES: CCCC[C@@H]1NC(=O)[C@@H]2CC[C@@H](C2)NC(=O)[C@H]([C@@H](C)c2c[nH]c3c(OC)cccc23)NC(=O)CN(C)C(=O)[C@H](Cc2ccc(O)cc2)NC(=O)[C@H](Cc2ccc(C(=O)O)cc2)NC(=O)[C@](C)(CO)NC(=O)[C@H](Cc2c[nH]c3c(Cl)cccc23)NC(=O)[C@H](Cc2ccncc2)NC(=O)[C@H](CC(N)=O)NC(=O)[C@H](CCC(=O)O)N(C)C(=O)[C@H](Cc2c[nH]c3ccccc23)NC(=O)[C@@H]2CNCCN2C(=O)[C@H](Cc2ccncc2F)NC1=O
B11: SEQ ID NO. 199 (peptide)
peptide: cyclo([bhcLeu][Nle][4Pal][Pip(4-aza)]W[NMeE]N[4Pal][Trp(7-Cl)][αMeS][Phe(4-SO3H)]Y[Sar][Trp(βS-Me,7-OMe)])
SMILES: CCCC[C@@H]1NC(=O)[C@@H]2CC[C@@H](C2)NC(=O)[C@H]([C@@H](C)c2c[nH]c3c(OC)cccc23)NC(=O)CN(C)C(=O)[C@H](Cc2ccc(O)cc2)NC(=O)[C@H](Cc2ccc(S(=O)(=O)O)cc2)NC(=O)[C@](C)(CO)NC(=O)[C@H](Cc2c[nH]c3c(Cl)cccc23)NC(=O)[C@H](Cc2ccncc2)NC(=O)[C@H](CC(N)=O)NC(=O)[C@H](CCC(=O)O)N(C)C(=O)[C@H](Cc2c[nH]c3ccccc23)NC(=O)[C@@H]2CNCCN2C(=O)[C@H](Cc2ccncc2)NC1=O

This test concerns the target T1, TNFR1 on THP-1 Lucia NF-κB cells. As to the kind of experiment: cell-based or functional assay.
Turning to B1, the “THP-1 IC50” value came out at 0.8 nM.

With B2, the “THP-1 IC50” value came out at 4.4 nM. To B3 belongs 3.7 nM; to B4, 1.6 nM. Take B5: the “THP-1 IC50” value was 1.9 nM.

Turning to {CH2CO}-[Nle][4Pal][Pip′]W[NMeE]N[4Pal][Trp(7-Cl)][αMeS][Phe(4-COOH)]Y[Sar][SbMeW7Me]C-NH2 (thioether N-14) [SEQ ID NO. 208], the “THP-1 IC50” value came to 4 nM. For B6 the value was 1.6 nM; for B7, 0.7 nM. For the molecule B8, the “THP-1 IC50” value was found to be 1 nM. For B9 the value was 3.3 nM; for B10, 0.9 nM. Regarding B11, the “THP-1 IC50” value amounted to 1 nM.
